Experimental data as given in the RNAGym collection of RNA variant scans (doi:10.1073/pnas.2313332121).
Variants at the floor of the assay were thinned out.

B1: TPR 5TU (parent)
chain: GGAUCUUCUCGAUCUAACAAAAAAGACAAAUCUGCCACAAAGCUUGAGAGCAUCUUCGGAUGCAGAGGCGGCAGCCUUCGGUGGCGCGAUAGCGCCAACGUUCUCAACUAUGACACGCAAAACGCGUGCUCCGUUGAAUGGAGUUUAUCAUG

Variants of: B1
Assay: polymerase ribozyme fitness, log enrichment relative to wild type (log ratio); higher = more active; in vitro selection for triplet polymerase activity
Method in brief: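 Fitness measures genotype enrichment against wild-type enrichment on a logarithmic scale, with inverse-variance-weighted averaging of replicates. The logarithm is base 2, and genotypes were kept only with ≥10 input reads and ≥1 read per output in Illumina sequencing. The sequenced libraries came from one triplicate in vitro selection round, including frozen incubation at −7 °C, of PCR-built, transcribed mutant libraries of each subunit of a heterodimeric triplet polymerase ribozyme.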
With U56A C96G the “polymerase ribozyme fitness (log ratio)” value was -0.228.
In the case of U56G G141U, the “polymerase ribozyme fitness (log ratio)” value is reported as 0.498.
With U56C C93U U101G C103U G136C the “polymerase ribozyme fitness (log ratio)” value was -4.09.
With U56G U151C the “polymerase ribozyme fitness (log ratio)” value was ≤ -4.2.
With U56A U130A the “polymerase ribozyme fitness (log ratio)” value was -2.03.
In the case of C57U G80A, the “polymerase ribozyme fitness (log ratio)” value is reported as -0.314.
With C57G A73G C116U the “polymerase ribozyme fitness (log ratio)” value was -0.324.
In the case of C57U C95A U109G, the “polymerase ribozyme fitness (log ratio)” value is reported as -0.696.
For G58A C95U, the “polymerase ribozyme fitness (log ratio)” value was -0.535.
For C57A A73U G84A U135A, the “polymerase ribozyme fitness (log ratio)” value was -2.22.
In the case of G58A G59A C96A, the “polymerase ribozyme fitness (log ratio)” value is reported as 0.0408.
In the case of G58U A60C C105G U148G, the “polymerase ribozyme fitness (log ratio)” value is reported as ≤ -4.2.
In the case of C57G G94C C114G C118A, the “polymerase ribozyme fitness (log ratio)” value is reported as ≤ -4.2.
With U56G A66C G81A C87U G117A the “polymerase ribozyme fitness (log ratio)” value was ≤ -4.2.
In the case of U56G G83U C125U, the “polymerase ribozyme fitness (log ratio)” value is reported as -1.82.
With G58C G126U U145G the “polymerase ribozyme fitness (log ratio)” value was -3.82.
In the case of U56G A91G, the “polymerase ribozyme fitness (log ratio)” value is reported as -3.24.
For C57A C79U C93U A98U A147U, the “polymerase ribozyme fitness (log ratio)” value was -3.03.
For U56A C93U U127C, the “polymerase ribozyme fitness (log ratio)” value was -2.73.
In the case of U56A G68C U77A C96G U104G C108U G141C, the “polymerase ribozyme fitness (log ratio)” value is reported as ≤ -4.2.
For U56C G58U C114U A119U, the “polymerase ribozyme fitness (log ratio)” value was -1.67.
In the case of U56A G83U, the “polymerase ribozyme fitness (log ratio)” value is reported as -0.976.
For U56A G81A G126U U135C A138C G141C, the “polymerase ribozyme fitness (log ratio)” value was ≤ -4.2.
With G58C A66C G67A A89C U111C C116A C129G U148A the “polymerase ribozyme fitness (log ratio)” value was ≤ -4.2.
In the case of U56A A73U C87A A142C, the “polymerase ribozyme fitness (log ratio)” value is reported as ≤ -4.2.
In the case of G58A A89G G94A, the “polymerase ribozyme fitness (log ratio)” value is reported as -1.91.
In the case of G58C G68A, the “polymerase ribozyme fitness (log ratio)” value is reported as -3.97.
In the case of U56A C96A A138G, the “polymerase ribozyme fitness (log ratio)” value is reported as ≤ -4.2.
With G58A C99U the “polymerase ribozyme fitness (log ratio)” value was -0.207.
In the case of U56A C118G A150G, the “polymerase ribozyme fitness (log ratio)” value is reported as -2.41.
In the case of G58U C76A, the “polymerase ribozyme fitness (log ratio)” value is reported as 0.0806.
With C57A G58U C76A C85U C96U A147G the “polymerase ribozyme fitness (log ratio)” value was -3.03.
For C57A C129U G141A, the “polymerase ribozyme fitness (log ratio)” value was ≤ -4.2.
With C57A A64C C129G the “polymerase ribozyme fitness (log ratio)” value was ≤ -4.2.
In the case of U56A G58A C103A C125A, the “polymerase ribozyme fitness (log ratio)” value is reported as -0.231.
For U56A C96U G126A, the “polymerase ribozyme fitness (log ratio)” value was -0.336.
For C57U C85U U102A C114A, the “polymerase ribozyme fitness (log ratio)” value was -3.9.
With G58U C105U U134A A137U U144A the “polymerase ribozyme fitness (log ratio)” value was ≤ -4.2.
For U56G G59A, the “polymerase ribozyme fitness (log ratio)” value was -1.14.
In the case of U56A G58C U61A G86U C87A G100U, the “polymerase ribozyme fitness (log ratio)” value is reported as ≤ -4.2.
With U56A U78A A121C the “polymerase ribozyme fitness (log ratio)” value was ≤ -4.2.
With C57U A60C G86A C105G the “polymerase ribozyme fitness (log ratio)” value was ≤ -4.2.
In the case of C57U C95G A120G G143A, the “polymerase ribozyme fitness (log ratio)” value is reported as -2.18.
In the case of U56G G81A U104C U145C, the “polymerase ribozyme fitness (log ratio)” value is reported as -1.47.
In the case of G58A U90A C125G, the “polymerase ribozyme fitness (log ratio)” value is reported as ≤ -4.2.
With C57A A89G A91G U145C U151G the “polymerase ribozyme fitness (log ratio)” value was ≤ -4.2.
For U56G A73G U101C A119G U148C, the “polymerase ribozyme fitness (log ratio)” value was -4.08.
For G58A C87A, the “polymerase ribozyme fitness (log ratio)” value was ≤ -4.2.
For C57U C75U C123G U144C, the “polymerase ribozyme fitness (log ratio)” value was -0.394.
With C57G G140C the “polymerase ribozyme fitness (log ratio)” value was -4.08.
With G58A C79U the “polymerase ribozyme fitness (log ratio)” value was -1.65.
In the case of U56G A142U, the “polymerase ribozyme fitness (log ratio)” value is reported as -0.88.
With U56A A73C G84U U127C the “polymerase ribozyme fitness (log ratio)” value was ≤ -4.2.
For C57A U146A, the “polymerase ribozyme fitness (log ratio)” value was -0.0166.
With U56G C69U A73U U134C G141U U146A the “polymerase ribozyme fitness (log ratio)” value was -2.72.
In the case of U56G A64U G81A G88A C114A A115U G141U, the “polymerase ribozyme fitness (log ratio)” value is reported as ≤ -4.2.
In the case of C57G A115U U145A, the “polymerase ribozyme fitness (log ratio)” value is reported as -1.54.
In the case of C57A C85U G124U U130A, the “polymerase ribozyme fitness (log ratio)” value is reported as -2.9.
In the case of U56A U82G C87G A91C, the “polymerase ribozyme fitness (log ratio)” value is reported as ≤ -4.2.
With G58U A60G the “polymerase ribozyme fitness (log ratio)” value was 0.208.
In the case of G58A C85G A115G, the “polymerase ribozyme fitness (log ratio)” value is reported as -2.89.
For C57U C125A, the “polymerase ribozyme fitness (log ratio)” value was -0.844.
With G58U G59U C96G C123A C149U the “polymerase ribozyme fitness (log ratio)” value was -3.08.
For U56A C57A C85U C87U U144A U146G, the “polymerase ribozyme fitness (log ratio)” value was ≤ -4.2.
For U56A G83C A122G G152U, the “polymerase ribozyme fitness (log ratio)” value was -3.94.
With U56A G62A A97G C103A the “polymerase ribozyme fitness (log ratio)” value was -3.45.
With C57A C93A the “polymerase ribozyme fitness (log ratio)” value was -2.04.
For U56A C57A C85G, the “polymerase ribozyme fitness (log ratio)” value was -0.79.
For C57U C95A G136A, the “polymerase ribozyme fitness (log ratio)” value was -0.1.
In the case of U56G G84C C116U, the “polymerase ribozyme fitness (log ratio)” value is reported as -4.17.
With U56A U145G the “polymerase ribozyme fitness (log ratio)” value was -0.287.
For U56A A113U, the “polymerase ribozyme fitness (log ratio)” value was -1.87.
In the case of C57G G59A C118U C125A G136C, the “polymerase ribozyme fitness (log ratio)” value is reported as -3.19.
For G58A U61A C87A G117A, the “polymerase ribozyme fitness (log ratio)” value was ≤ -4.2.
With C57U A97U the “polymerase ribozyme fitness (log ratio)” value was -1.22.
With G58U G83C the “polymerase ribozyme fitness (log ratio)” value was -0.165.
In the case of U56A C132G A137U, the “polymerase ribozyme fitness (log ratio)” value is reported as -4.03.
With U56G G84A A91G A115G the “polymerase ribozyme fitness (log ratio)” value was -4.1.
For C57G G59A G80U G92U C99A C131U U135A, the “polymerase ribozyme fitness (log ratio)” value was -3.22.
With U56G G136A the “polymerase ribozyme fitness (log ratio)” value was 0.0437.
For G58A A73G G88C A150U, the “polymerase ribozyme fitness (log ratio)” value was ≤ -4.2.
For U56A U61A, the “polymerase ribozyme fitness (log ratio)” value was -1.51.
For U56A U61G, the “polymerase ribozyme fitness (log ratio)” value was -1.7.
